# According to the DeepSol protein solubility set:
# Experiment: soluble on expression in E. coli; label from the status in PepcDB or PDB records
row,Sequence,soluble on expression in E. coli
1,MTGSTAGKVLVVGALGVVGRAALEHFGQRPGLARVGLSRRAPDFAPEATWISADLRDAQATRAALAAHGDATHVVYAALNEQPDLLKGWRDSGNVDLNTRMLRNTLDALREAPLRHVTLLQGTKAYGVHTGRPMPVPARETDAVRDHANFYFDQQDLLAERAAAQGFAWTIFRPQIVLGVALGSAMNPVATLGAYAALSREAGQPLRYPGHPHLLTECTDARLIARAIAWAWDEPRAHGEAFNIANGDVVLWQPVFERLAALFGMPLGEPVDTRMREAMPEQAERWRAIAERERLAVPQLRDLIGLSWQYADATWAARHPLPVPPLVSTIKLRQAGFGDCIDTQECIVEHLREMQRLRYLPRLEHHHHHH,not soluble
2,EERLKMSTTTSTQDSGLLKVLLPPFEKKNNVKVDVIAVGTGQALKLGEAGDVDVVFVHARKLEDKFVADGFGVNRKDVMYNDFVIVGPKNDPAGIAKAKTAAEALKLLATKGATFISRGDKSGTHTKELDLWKSAGVDPKGNWYVEAGQGMGPVITMATERRAYTLTDRGTYNAFKGAKTDLVILFQGEKGLFNPYGIMAVNPKKFPHVKYDLAMKLIDYVTGPEGLKIISDYKAHG,not soluble
3,MVSSSVARGLEDAGLKRFVPAFSGVSDQAFLGLMMSDYASYGVVELEDKQRLFRLIKSIAASVKSSDAPAPALEKPNALIDLDENDGDLLADAGVNFQLSPLANQNPKAPVPSGGGGVPPSEGEDPPKIRVVVRKRPISKKERERGDDDVVDVLAKNNTVVVNEEKVKVDLTKYLEKHAFKFDESLDENVSNEAVYQLTVGPLVRTLFRNGRASCFAYGQTGSGKTYTMSPLPIRASADIFTFMAQQQYRDISLCVSCFEIYGNKVFDLLNARKKLNILEDGKKKVVVVGLKEFGVDDVDGVKALIEESAKNRSTGSTAANADSSRSHSIMQFALKRAAPAPAGGFRRGEDAPEPRVVGKISFIDLAGSERGADTFDNNRQTRLEGAEINKSLLALKECIRALDSDARHVPFRGSKLTAVLRDSFVGDQARTVMIANISPCSSSVEHTLNTLRYADRVKELRKDKADRTPGGVTPGDDAYYAAVARAAGPGQAAAPAPERERERADLQRERDRERASDRYPSPPRQQAGAFAGGGGGGAGADGEGSAAALAERHDELMDSILLEEENLVAFHRAKLEEDMETMRQEMALLQEVDKPGSEIDHYVEQMSALLNIKRQGIQELQAKLDTFKAKLREEEALSRTVHKIRT,not soluble
4,MGSDKIHHHHHHMLPMADQIQTLQEQVLQARSNGQKLNIVGGGTKSFMGRQGCAEAGTLSLAEHTGVVEYHPVELVLTVRAGTPLKEIEAVLAEQGQCLHFEPPHFGDASTIGGTLACNLSGPARPWAGSVRDQVLGIRLLNGKGEHLRFGGQVMKNVAGYDVSRLQAGAMGTLGVITEISLKVMPKPAATTTLVREMTMDEVVEYMNRRAGEPKPITGACWVDGKVYLRLAGAKSAVEATAEQWGGQVLADGEQFWRQVQDMQHPFFDDPELPLWRFSVDSTAKTPELDGPWMIDWAGSQRWYRGQASLDQLEPLARAAGGQVSLFRGGDRTGEVMHGQPQALKTIQQRVKKSFDPDAIFNPGRLYSWL,not soluble
5,MSLRDTQTQLRNEMIYSVFVRNYSEAGNFAGVTADLQRIKDLGTDILWLLPINPIGEVNRKGTLGSPYAIKDYRGINPEYGTLADFKALTDRAHELGMKVMLDIVYNHTSPDSVLATEHPEWFYHDADGQLTNKVGDWSDVKDLDYGHHELWQYQIDTLLYWSQFVDGYRCDVAPLVPLDFWLEARKQVNAKYPETLWLAESAGSGFIEELRSQGYTGLSDSELYQAFDMTYDYDVFGDFKDYWQGRSTVERYVDLLQRQDATFPGNYVKMRFLENHDNARMMSLMHSKAEAVNNLTWIFMQRGIPLIYNGQEFLAEHQPSLFDRDTMVADRHGDVTPLIQKLVTIKQLPLLRAADYQLAVVEEGIVKITYRAAGEALTAWIPLKGQVTAVATKLAAGSYQNLLTDGPTEVVDGKLTVDGQPVLIKYVTNTAVTKVADQSNEGHHHHHH,soluble
6,MKDSALTLKRVRIGKFSESMVEERPTLNLFEKVEFNPVPTALVDQLPTEPLVEATLLEKEAITFVDTYATSEAHDQIATFVLEQSMETEVVEKEAIETAIVAPAPDLVEEKAVLVEEVLVEPTATEAVTTEENQVSTTSVTKIKTKRSNTKKVTSETLVASKSVKTKKLITPNRVSSGNVNITLWQVDKKSTNLTKTKTDLFGKKHQFKGPQLISYKK,soluble
